Experimental data as given in patent US20250289871A1.

Target: SARS-CoV-2 Delta + T51I + T95I spike protein (authentic virus) (SARS-CoV-2), P0DTC2
Assay: cell-based or functional assay

B1: RQ43-GL-H-LO1 (TM-YTE) (antibody, V domains shown)
VH: EVQLVESGGGLVQPGRSLRLSCAASGFPFDDYAIHWVRLAPGKGLEWVSSISWDSGSIGYADSVKGRFTISRDNAKNSLYLQMNSLRAEDTALYYCAKGAFPGYSSGWYYGLEVWGQGTTVTVSS
VL: QSVVTQPPSASGSLGQSVTISCTGTSSDVGGYNYVSWYQQHPGKAPKLMIFEVSKRPSGVPDRFSGSKSGNTASLTVSGLQAEDEADYYCSSYAGNKGVFGGGTKLTVL
**Q.** How did the Authentic Virus Neutralization IC50 turn out when B1 was run?
**A.** 0.021 µg/mL
